Laboratory results published in patent US20160038588A1, “Myostatin Antagonism in Human Subjects” (AMGEN INC., priority 2013, published 2016).

Biological target: T1, myostatin (Homo sapiens, UniProt O14793)
T1 construct: To produce mature myostatin, the pooled promyostatin was enzymatically cleaved between the propeptide and mature myostatin C terminal; made in house
T1 sequence (O14793 267-375): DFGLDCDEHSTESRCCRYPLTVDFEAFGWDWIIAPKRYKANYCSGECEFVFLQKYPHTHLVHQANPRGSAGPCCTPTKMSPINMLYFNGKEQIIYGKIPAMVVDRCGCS
Test: BIAcore affinity analysis on immobilized myostatin
Assay type: binding
Details: Biacore assay
Excerpt: The antagonists including the binding agents described herein can be tested for their ability to bind myostatin and inhibit or block myostatin activity. Any number of assays or animal tests may be used to determine the ability of the agent to inhibit or block myostatin activity. Several assays used for characterizing the peptides and peptibodies of the present invention are described in the Examples below. One assay is the C2C12 pMARE-luc assay which makes use of a myostatin-responsive cell line (C2C12 myoblasts) transfected with a luciferase reporter vector containing myostatin/activin response elements (MARE). Exemplary peptibodies are assayed by pre-incubating a series of peptibody dilutions with myostatin, and then exposing the cells to the incubation mixture. The resulting luciferase activity is determined, and a titration curve is generated from the series of peptibody dilutions. The IC50 (the concentration of peptibody to achieve 50% inhibition of myostatin activity as measured by luciferase activity) was then determined. […]
Direct binding assays were used to screen and rank the peptibodies in order of their ability to bind to immobilized myostatin. […] Peptibody binding kinetic parameters including ka (association rate constant), kd (dissociation rate constant) and KD (dissociation equilibrium constant) were determined using the BIA evaluation 3.1 computer program (Biacore, Inc.). […]

Kd: ~7 nM
B1: ActRIIB/Fc: soluble receptor fusion protein actRIIB/Fc (R &D Systems) (protein)
chain: SGRGEAETRECIYYNANWELERTNQSGLERCEGEQDKRLHCYASWRNSSGTIELVKKGCWLDDFNCYDRQECVATEENPQVYFCCCEGNFCNERFTHLPEAGGPEVTYEPPPTAPT
modifications: left off: a dimerising Fc or GST
